# Laboratory results as given in PMC12136491, “Establishment of an efficient one-step enzymatic synthesis of cyclic-2,3-diphosphoglycerate” (Frontiers in Microbiology, 2025).
# Key:
# [1] = substrate: O=C(O)[C@@H](COP(=O)(O)O)OP(=O)(O)O; experiment: purified protein; type: biochemical, Methanothermus fervidus; conditions: 10 mM ATP constant, Mg2+/ATP molar ratio 0.5, 50 mM MES/KOH pH 6.5, 400 mM KCl, 55°C, two-substrate Michaelis-Menten fit
# [2] = substrate: Nc1ncnc2c1ncn2[C@@H]1O[C@H](COP(=O)(O)OP(=O)(O)OP(=O)(O)O)[C@@H](O)[C@H]1O; experiment: purified protein; type: biochemical, Methanothermus fervidus; conditions: 10 mM 2,3DPG constant, Mg2+/ATP molar ratio 0.5, 50 mM MES/KOH pH 6.5, 400 mM KCl, 55°C, two-substrate Michaelis-Menten fit
protein,measurement,setting,value
"MfcDPGS (cyclic-2,3-diphosphoglycerate synthetase) (Methanothermus fervidus DSM 2088) (protein, heat precipitation and SEC; homodimer (119 kDa)) GETKKMICLVDGEHYFPVVKDSIEILDDLEHIDVVAVVFIGGTEKLQIEDPKEYSEKLGKPVFFGPDPKKIPYDVIKKCVKKYNADIVMDLSDEPVVDYTKRFRIASIVLKEGAVYQGADFKFEPLTEYDVLEKPSIKIIGTGKRIGKTAVSAYAARVIHKHKYNPCVVAMGRGGPREPEIVEGNKIEITAEYLLEQADKGVHAASDHWEDALMSRILTVGCRRCGGGMLGDTFITNVKRGAEIANKLDSDFVIMEGSGAAIPPVKTNRQIVTVGANQPMININNFFGPFRIGLADLVIITMCEEPMATTEKIKKVEKFIKEINPSANVIPTVFRPKPVGNVEGKKVLFATTAPKVVVGKLVNYLESKYGCDVVGVTPHLSNRPLLRRDLKKYINKADLMLTELKAAAVDVATRVAIEAGLDVVYCDNIPVVIDESYGNIDDAIIEVVEMAIDDFKNNR",Km,[1],1520 ± 400 µM
same,Km,[2],550 ± 80 µM
